Measurements reported in the supplement of paper PMC6757056.
± gives the standard deviation of the averaged measurements.

B1: library; a variant is named by its letters at N, in order (parent)
chain: GCUGUCACCGAGAAACUGUGAAGUAUAUCUUAAACCUGGGCACUUAAAAGAUAUAUGGAGUUAGUAGUGCAACCUGCUCGGUCUGAUGAGUCCNNNNNNGGACGAAACAGC

Tests used:
cyclic di-GMP [1] = variants of: B1; test: FACS-Seq fitted mean relative fluorescence mCherry/BFP without ligand (log10 relative fluorescence); HEK293T; ligand: cyclic di-GMP (c-di-GMP-II aptamer); higher = higher reporter protein expression; details: ligand present: no
Outline: (§1)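 Lentivirally transduced HEK293T libraries carried an mCherry reporter with the ribozyme switch and an EF1α-BFP marker. Transduced cells were enriched, then incubated with or without ligand for 48 h and sorted into 6 bins by mCherry/BFP. Genomic DNA from each bin was PCR-amplified, barcoded and sequenced on MiSeq. Fluorescence was the fitted normal mean of log10(mCherry/BFP) bin counts, scaled to five spiked-in control ribozymes.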

cyclic di-GMP [2] = variants of: B1; test: normalized RNA/DNA level without ligand (relative to sTRSVctl = 100) (log10 (% of sTRSVctl)); HEK293T; ligand: cyclic di-GMP (c-di-GMP-II aptamer); higher = less ribozyme self-cleavage, higher mRNA level; details: reporter: mCherry (pCS4076), ligand present: no
Method: (§2)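 Hammerhead (sTRSV) ribozyme switch libraries with a ligand aptamer grafted on stem I and a randomized N4-6 loop II, cloned into the 3' UTR of mCherry and transiently transfected into HEK293T cells; RNA-Seq 72 h post transfection with ligand added 1 h before transfection; RNA read count / plasmid DNA read count normalized to the non-cleaving sTRSVctl (x100), log10; sequences with >100 DNA reads. FACS-Seq: lentiviral library sorted into 6 bins after 48 h ligand, log-normal fit mean of mCherry/BFP scaled to controls. Printed sequences are partial switch sequences.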

cyclic di-GMP [3] = variants of: B1; test: FACS-Seq fitted mean relative fluorescence mCherry/BFP with ligand (log10 relative fluorescence); HEK293T; ligand: cyclic di-GMP (c-di-GMP-II aptamer); ligand concentration (+) FACS-Seq: 1 mM; higher = higher reporter protein expression; details: ligand present: yes
Outline: as §1

cyclic di-GMP [4] = variants of: B1; test: normalized RNA/DNA level with ligand (relative to sTRSVctl = 100) (log10 (% of sTRSVctl)); HEK293T; ligand: cyclic di-GMP (c-di-GMP-II aptamer); ligand concentration (+) RNA-Seq: 1 mM; higher = less ribozyme self-cleavage, higher mRNA level; details: reporter: mCherry (pCS4076), ligand present: yes
Method: as §2

Row | Variant | FACS-Seq fitted mean (log10) (cyclic di-GMP [1]) | normalized RNA/DNA level without ligand (log10) (cyclic di-GMP [2]) | FACS-Seq fitted mean (log10) (cyclic di-GMP [3]) | normalized RNA/DNA level with ligand (log10) (cyclic di-GMP [4])
1 | GCUGUCACCGAGAAACUGUGAAGUAUAUCUUAAACCUGGGCACUUAAAAGAUAUAUGGAGUUAGUAGUGCAACCUGCUCGGUCUGAUGAGUCCCAUCCAGGACGAAACAGC [CAUCCA] | -0.794 ± 0.028 | 1.44 ± 0.016 | -0.5192 ± 0.002 | 1.696 ± 0.011
2 | GCUGUCACCGAGAAACUGUGAAGUAUAUCUUAAACCUGGGCACUUAAAAGAUAUAUGGAGUUAGUAGUGCAACCUGCUCGGUCUGAUGAGUCCUAUCACGGACGAAACAGC [UAUCAC] | 0.171 ± 0.13 | 1.75 ± 0.0055 | 0.375 ± 0.051 | 1.87 ± 0.11
3 | GCUGUCACCGAGAAACUGUGAAGUAUAUCUUAAACCUGGGCACUUAAAAGAUAUAUGGAGUUAGUAGUGCAACCUGCUCGGUCUGAUGAGUCCUAUAUCGGACGAAACAGC [UAUAUC] | -0.579 ± 0.13 | 1.71 ± 0.018 | -0.583 ± 0.2 | 1.85 ± 0.12
4 | GCUGUCACCGAGAAACUGUGAAGUAUAUCUUAAACCUGGGCACUUAAAAGAUAUAUGGAGUUAGUAGUGCAACCUGCUCGGUCUGAUGAGUCCCAUAUAGGACGAAACAGC [CAUAUA] | -0.483 ± 0.05 | 1.3 ± 0.14 | -0.237 ± 0.014 | 1.51 ± 0.097
5 | GCUGUCACCGAGAAACUGUGAAGUAUAUCUUAAACCUGGGCACUUAAAAGAUAUAUGGAGUUAGUAGUGCAACCUGCUCGGUCUGAUGAGUCCGAUCGAGGACGAAACAGC [GAUCGA] | -0.635 ± 0.0097 | 1.64 ± 0.033 | -0.425 ± 0.16 | 1.78 ± 0.094
6 | GCUGUCACCGAGAAACUGUGAAGUAUAUCUUAAACCUGGGCACUUAAAAGAUAUAUGGAGUUAGUAGUGCAACCUGCUCGGUCUGAUGAGUCCCAUCUCGGACGAAACAGC [CAUCUC] | -0.977 ± 0.064 | 1.74 ± 0.051 | -0.802 ± 0.028 | 1.86 ± 0.11
7 | GCUGUCACCGAGAAACUGUGAAGUAUAUCUUAAACCUGGGCACUUAAAAGAUAUAUGGAGUUAGUAGUGCAACCUGCUCGGUCUGAUGAGUCCUAUGAAGGACGAAACAGC [UAUGAA] | -0.265 ± 0.024 | 1.64 ± 0.018 | -0.0026 ± 0.016 | 1.78 ± 0.08
8 | GCUGUCACCGAGAAACUGUGAAGUAUAUCUUAAACCUGGGCACUUAAAAGAUAUAUGGAGUUAGUAGUGCAACCUGCUCGGUCUGAUGAGUCCCAUGAAGGACGAAACAGC [CAUGAA] | -0.704 ± 0.022 | 1.28 ± 0.092 | -0.4855 ± 0.00097 | 1.43 ± 0.12
9 | GCUGUCACCGAGAAACUGUGAAGUAUAUCUUAAACCUGGGCACUUAAAAGAUAUAUGGAGUUAGUAGUGCAACCUGCUCGGUCUGAUGAGUCCCAUCAAGGACGAAACAGC [CAUCAA] | -0.3769 ± 0.0032 | 1.32 ± 0.035 | -0.0581 ± 0.076 | 1.57 ± 0.057
10 | GCUGUCACCGAGAAACUGUGAAGUAUAUCUUAAACCUGGGCACUUAAAAGAUAUAUGGAGUUAGUAGUGCAACCUGCUCGGUCUGAUGAGUCCGAUCAAGGACGAAACAGC [GAUCAA] | -0.23 ± 0.07 | 1.57 ± 0.054 | 0.0757 ± 0.065 | 1.75 ± 0.052
11 | GCUGUCACCGAGAAACUGUGAAGUAUAUCUUAAACCUGGGCACUUAAAAGAUAUAUGGAGUUAGUAGUGCAACCUGCUCGGUCUGAUGAGUCCGAUCAUGGACGAAACAGC [GAUCAU] | -0.326 ± 0.12 | 1.63 ± 0.051 | -0.0439 ± 0.023 | 1.79 ± 0.14
12 | GCUGUCACCGAGAAACUGUGAAGUAUAUCUUAAACCUGGGCACUUAAAAGAUAUAUGGAGUUAGUAGUGCAACCUGCUCGGUCUGAUGAGUCCAAUGAAGGACGAAACAGC [AAUGAA] | -0.0795 ± 0.021 | 1.46 ± 0.097 | 0.113 ± 0.065 | 1.63 ± 0.097
13 | GCUGUCACCGAGAAACUGUGAAGUAUAUCUUAAACCUGGGCACUUAAAAGAUAUAUGGAGUUAGUAGUGCAACCUGCUCGGUCUGAUGAGUCCCAUCGAGGACGAAACAGC [CAUCGA] | -0.063 ± 0.043 | 1.64 ± 0.057 | 0.144 ± 0.0063 | 1.78 ± 0.07
